# Numbering of substitutions follows the chain as printed.
# B1: VRC13b (antibody, V domains shown)
# VH: QVQLVQSGTALKSPGSSAKLSCTVLGDEFGTYFISWIRQAPGQGLEWVGGIVPHSQLQSSAQKFHGRIIISAGAGVTPPVVSLQLTNLTFEDTGTYFCARERGRHRDPKTGDALRGRYFDFWGRGTGVSVSA
# VL: QSVLTQPAFVSGSPGQSITLSCTLGTEDVSWYQQRPNSAPRLIIFDVKKRPSDVSDRFSGHNSDTAAFLTISELRPEDEAEYFCTSWPYRFGRGTKVDVA
# B2: VRC13e (antibody, V domains shown)
# V domain 1: QPYIVQSGPAVKGAGSSVTVTCKVDGDDDGIFSFGTYFMVWVRQAPGQGLQYMGGLVPSYAPTYAHKFEGRITISAAGTPPVVSLTLLNLTNDDAATYFCARERGRHYDSKTRENRRGRYFDMWGRGTRITVSP
# V domain 2: QSVLTQPASVSGSPGQTISISCSGTFGSDSVSWYQQYPNSAPTLIIFDVHRRPSGISTRFSGSTSGDTASLTISTLHREDEAYYYCTSHPYDFGGGTYVIVL
# B3: VRC13f (antibody, V domains shown)
# V domain 1: B2 V domain 1 with K23R, S33N, L88I, D93A
# V domain 2: B2 V domain 2 with Y37F, Y83F
# B4: VRC13d (antibody, V domains shown)
# VH: QVQLVQSGAVVKSPGSSAKLSCRLLGDEFGTYFISWIRQAPGRGLEWVGGIVPHSQLQSSAQKFHGRFFITGGVTPPIIFLQLTNVTFEDTGTYFCARERGRHRDPKTGKSLRGRYFDFWGRGTGVTVSP
# VL: QSVLTQPAFVSASPGQSITLSCNLGTDYVSWYQQRPSSAPRLIIFDVKNRPSGVSDRFSGYNSDTAAFLTISGLQPEDEAEYYCTSWPYNFGPGTKVDVT
# B5: VRC13g (antibody, V domains shown)
# VH: QIELRQSGAAMKSPGSSVKLSCTVLGENFGTYFISWIRQAPGQGLEWVGGIVPHSQLQSSAQKFHGRIKISGGGTPPVVSLELTNVTFDDTGTYFCARERGRHVEPKTGDRLAGRYFDIWGRGTGLRVSP
# VL: QSVLTQPAFVSGSPGQSITISCTVGTTDVSWYQQRPNSAPRLIIFDVKKRPSGVSDRFSGSSSDNAAFLTIAGLRPEDEAEYYCTSWPYRFGRGTKVDVG
# B6: VRC13c (antibody, V domains shown)
# VH: QLQLDQPGAAMKSLGSSLTITCRVSGDDLGSFHFGTYFMIWVRQGPGQGLEYMGGILPSTKTPTYAHKFRGRVSISAPGVPPVLSLALTNLTYDDTATYFCARERGRHFEPKNRDHLEGKFLDLWGRGTFVRVSP
# VL: QSVLTQPASVSGSPGQSINISCAGRSDRVSWYQQRPNGVPKLLLFDVYRRPSGVSDRFSGSHSDDTAFLTISGLQTDDEADYYCTSHPYAFGPGTKVNVL
# Legend:
# [1] = target: RSC3 probe; assay: ELISA-type plate assay (OD450), mAb titrated on RSC3 [panel VRC13b]
# [2] = target: RSC3 probe; assay: ELISA-type plate assay (OD450), mAb titrated on RSC3 [panel VRC13e]
# [3] = target: RSC3 probe; assay: ELISA-type plate assay (OD450), mAb titrated on RSC3 [panel VRC13f]
# [4] = target: RSC3 probe; assay: ELISA-type plate assay (OD450), mAb titrated on RSC3 [panel VRC13d]
# [5] = target: RSC3 probe; assay: ELISA-type plate assay (OD450), mAb titrated on RSC3 [panel VRC13g]
# [6] = target: RSC3 probe; assay: ELISA-type plate assay (OD450), mAb titrated on RSC3 [panel VRC13c]
binder,measurement,setting,value
B1,EC50 (read off the curve),[1],0.02 µg/mL
B2,EC50 (read off the curve),[2],0.02 µg/mL
B3,EC50 (read off the curve),[3],0.02 µg/mL
B4,EC50 (read off the curve),[4],0.02 µg/mL
B5,EC50 (read off the curve),[5],0.02 µg/mL
B6,EC50 (read off the curve),[6],0.02 µg/mL

# — patent US20150044137A1
